From paper PMC9792439 (Biochimica et biophysica acta. General subjects, 2022)

Target: GST-tagged wild type human UBQLN2 (human, UniProt Q9UHD9 1-624)
Experiment: pull-down

Sequence of GST-tagged wild type human UBQLN2 (Q9UHD9 whole entry): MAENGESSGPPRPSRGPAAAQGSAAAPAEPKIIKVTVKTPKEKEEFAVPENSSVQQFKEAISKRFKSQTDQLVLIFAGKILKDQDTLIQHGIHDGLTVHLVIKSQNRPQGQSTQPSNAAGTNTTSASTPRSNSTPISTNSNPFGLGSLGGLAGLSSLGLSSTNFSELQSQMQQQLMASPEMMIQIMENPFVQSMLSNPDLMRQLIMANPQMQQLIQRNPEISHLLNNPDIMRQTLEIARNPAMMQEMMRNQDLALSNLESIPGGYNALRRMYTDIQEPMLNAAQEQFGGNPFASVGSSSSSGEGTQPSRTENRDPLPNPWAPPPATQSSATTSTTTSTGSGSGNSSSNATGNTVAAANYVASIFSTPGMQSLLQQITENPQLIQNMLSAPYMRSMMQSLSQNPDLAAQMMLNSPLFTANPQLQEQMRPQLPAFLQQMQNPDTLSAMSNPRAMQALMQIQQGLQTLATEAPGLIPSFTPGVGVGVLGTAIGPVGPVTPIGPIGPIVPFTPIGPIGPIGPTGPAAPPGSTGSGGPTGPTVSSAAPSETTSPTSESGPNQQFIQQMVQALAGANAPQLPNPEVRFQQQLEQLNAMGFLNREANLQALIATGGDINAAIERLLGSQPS

- binding result: binds
B1: HSPA1B ATP-binding domain (1 to 385 aa) with 6 His tag (domain or fragment)
chain: not shown
